Data published in patent publication US20250163169.

What was measured:
[1] = system: Recombinant Ig-CD95L
[2] = system: 43-mer covering the stalk region of CD95L (residue 103 to residue 145)
Sequence of 43-mer covering the stalk region of CD95L (residue 103 to residue 145) (chain, as listed by the source): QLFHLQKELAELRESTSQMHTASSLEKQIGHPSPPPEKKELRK

Sequence of MMP3 (chain, as listed by the source): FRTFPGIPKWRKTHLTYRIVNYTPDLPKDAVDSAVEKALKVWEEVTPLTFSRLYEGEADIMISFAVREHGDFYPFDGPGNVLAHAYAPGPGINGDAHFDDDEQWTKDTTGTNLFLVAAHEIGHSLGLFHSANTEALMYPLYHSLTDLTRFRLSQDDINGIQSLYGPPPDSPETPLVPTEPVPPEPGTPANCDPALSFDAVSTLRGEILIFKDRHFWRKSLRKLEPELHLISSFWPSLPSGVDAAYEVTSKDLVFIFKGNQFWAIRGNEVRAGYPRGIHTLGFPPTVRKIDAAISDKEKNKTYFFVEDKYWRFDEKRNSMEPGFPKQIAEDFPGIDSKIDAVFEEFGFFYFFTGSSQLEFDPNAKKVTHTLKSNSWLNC
Sequence of Recombinant Ig-CD95L (chain, as listed by the source): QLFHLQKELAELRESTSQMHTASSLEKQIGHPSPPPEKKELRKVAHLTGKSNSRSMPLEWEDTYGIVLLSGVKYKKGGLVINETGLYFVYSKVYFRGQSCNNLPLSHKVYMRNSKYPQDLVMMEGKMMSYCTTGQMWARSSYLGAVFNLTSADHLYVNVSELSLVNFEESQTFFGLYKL

## MMP3
[1]
  cleavage of Ig-CD95L (western blotting): Using this Ig-CD95L, we showed that MMP2 and MMP3 can cleave CD95L
[2]
  percentage of degradation of the 43-mer (LC-MS/MS): more of 20% of cleavage
